Measurements from article PMC8794075 (Emerging Microbes & Infections, 2022).

Legend:
[1] = target: SARS-CoV-2 RBD protein (wild type) (SARS-CoV-2, UniProt P0DTC2); experiment: ELISA; details: both partners purified
SARS-CoV-2 NTD protein = SARS-CoV-2 NTD protein (SARS-CoV-2 Wuhan-Hu-1, UniProt P0DTC2); experiment: ELISA; details: both partners purified

B1: MAb S3H3 (antibody, V domains shown)
VH: QVQLQQPGAELVRPGASVKLSCKASGYSFTRFWMNWVKQRPGQGLEWIGMIHPSDSETRLNQKFKDKATLTVDKSSTTAYMQLSSPTSEDSAVYYCARKDYDYDAWFAYWGQGTLVTVSA
VL: DIVLTQSPASLAVSLGQRATISCRASKSVSASVYSYMHWYQQKPGQPPKLLIYLASSLESGVPARFSGSGSGTDFTLNIHPVEEEDAATYYCHHSRELPPAFGGGTKLEIK
B1: no binding (tested: 100 ng/well) [1]; no binding (tested: 100 ng/well) (SARS-CoV-2 NTD protein).
